According to article PMC9638894, “Anti-CRISPR proteins function through thermodynamic tuning and allosteric regulation of CRISPR RNA-guided surveillance complex” (Nucleic Acids Research, 2022):

Target: T1, type IF CRISPR RNA guided surveillance complex (Csy) (UniProt Q02MM2 1-187)
T1 construct: Cas8f subunit (tail) of the type IF Csy complex; Csy1); Cas5 subunit (tail) of the type IF Csy complex; Csy2); Cas7 subunit (backbone, six copies Cas7.1f-Cas7.6f) of the type IF Csy complex; Csy3); Cas6f subunit (head) of the type IF Csy complex; Csy4); Ribonucleoprotein: also holds one crRNA (synthetic CRISPR, Addgene 89244); Purified on Ni-NTA, so one subunit carries a His tag; also called Csy …
Assay: ITC; AcrIF9 or AcrIF2 binding to the Csy complex; conditions not told in the text shown (Supplemental Figure S8)
Details: both partners purified

B1: AcrIF9 (natural protein)
chain: MKAAYIIKEVQNINSEREGTQIEATSLSQAKRIASKEQCFHGTVMRIETVNGLWLAYKEDGKRWVDCQ
dH: > 0
